Data: US20230310628A1, “Multi-Targeted Multi-Valent Ligand Drug Particles for the Treatment and Prevention of Diseases and Conditions” (priority 2017, published 2023)
Several values for one entry are separate records, joined by “and”; a condition that tells them apart may be missing. Equal entries are not always repeated. One block for each substance: values may come before it.

Columns and labels:
[1] = biological target: human epidermal growth factor receptor 2 (HER2) (human) (UniProt P04626); assay: dose-uptake, fluorometry of lysed cells, 37 °C, 4 hr; MKN-7 cells
[2] = biological target: human epidermal growth factor receptor 2 (HER2) (human) (UniProt P04626); assay: dose-uptake, fluorometry of lysed cells; SK-BR-3 cells; 10 F5 scFv per liposome
[3] = biological target: human epidermal growth factor receptor 2 (HER2) (human) (UniProt P04626); assay: dose-uptake, fluorometry of lysed cells; SK-BR-3 cells; 15 F5 scFv per liposome
[4] = biological target: human epidermal growth factor receptor 2 (HER2) (human) (UniProt P04626); assay: dose-uptake, fluorometry of lysed cells, 37 °C, 4 hr; MKN-7 cells; 5 F5 scFv per liposome
[5] = biological target: human epidermal growth factor receptor 2 (HER2) (human) (UniProt P04626); assay: dose-uptake, fluorometry of lysed cells, 37 °C, 4 hr; BT-474 cells; 5 F5 scFv per liposome
[6] = biological target: human epidermal growth factor receptor 2 (HER2) (human) (UniProt P04626); assay: dose-uptake, fluorometry of lysed cells, 37 °C, 4 hr; MKN-7 cells; 10 F5 scFv per liposome
[7] = biological target: human epidermal growth factor receptor 2 (HER2) (human) (UniProt P04626); assay: dose-uptake, fluorometry of lysed cells, 37 °C, 4 hr; MKN-7 cells; 15 F5 scFv per liposome
[8] = biological target: human epidermal growth factor receptor 2 (HER2) (human) (UniProt P04626); assay: dose-uptake, fluorometry of lysed cells, 37 °C, 4 hr; BT-474 cells; 10 F5 scFv per liposome
[9] = biological target: human epidermal growth factor receptor 2 (HER2) (human) (UniProt P04626); assay: dose-uptake, fluorometry of lysed cells, 37 °C, 4 hr; BT-474 cells; 15 F5 scFv per liposome
[10] = biological target: human epidermal growth factor receptor 2 (HER2) (human) (UniProt P04626); assay: dose-uptake, fluorometry of lysed cells, 37 °C, 4 hr; SK-BR-3 cells; plateau at ˜200 µM PL
[11] = biological target: human epidermal growth factor receptor 2 (HER2) (human) (UniProt P04626); assay: flow cytometry (MFI) of DiD-labelled liposomes, 75 µM PL, 37 °C, 4 hr; MKN-7 cells (moderate HER2 and EGFR)
[12] = biological target: human epidermal growth factor receptor 2 (HER2) (human) (UniProt P04626); assay: flow cytometry (MFI) of DiD-labelled liposomes, 75 µM PL, 37 °C, 4 hr; BT-474 cells; mono-targeted counterpart with 5 F5 scFv per liposome
[13] = biological target: epidermal growth factor receptor (EGFR) (human) (UniProt P00533); assay: dose-uptake, fluorometry of lysed cells, 37 °C, 4 hr; MDA-468 cells (EGFR overexpressed, negligible HER2); 5 F5 scFv per liposome; no significant uptake compared to non-targeted liposomes
[14] = biological target: epidermal growth factor receptor (EGFR) (human) (UniProt P00533); assay: dose-uptake, fluorometry of lysed cells, 37 °C, 4 hr; MDA-468 cells (EGFR overexpressed, negligible HER2); 10 F5 scFv per liposome; no significant uptake compared to non-targeted liposomes
[15] = biological target: epidermal growth factor receptor (EGFR) (human) (UniProt P00533); assay: dose-uptake, fluorometry of lysed cells, 37 °C, 4 hr; MDA-468 cells (EGFR overexpressed, negligible HER2); 15 F5 scFv per liposome; no significant uptake compared to non-targeted liposomes
[16] = biological target: human epidermal growth factor receptor 2 (HER2) (human) (UniProt P04626); assay: dose-uptake, fluorometry of lysed cells, 37 °C, 4 hr; SK-BR-3 cells (HER2 overexpressed, negligible EGFR)
[17] = biological target: epidermal growth factor receptor (EGFR) (human) (UniProt P00533); assay: flow cytometry (MFI) of DiD-labelled liposomes, 75 µM PL, 37 °C, 4 hr; MDA-468 cells (EGFR overexpressed, negligible HER2)
[18] = biological target: epidermal growth factor receptor (EGFR) (human) (UniProt P00533); assay: dose-uptake, fluorometry of lysed cells, 37 °C, 4 hr; MDA-468 cells (EGFR overexpressed, negligible HER2); 10 cetuximab-Fab′ and 5 F5 scFv per liposome
[19] = biological target: epidermal growth factor receptor (EGFR) (human) (UniProt P00533); assay: dose-uptake, fluorometry of lysed cells, 37 °C, 4 hr; MDA-468 cells (EGFR overexpressed, negligible HER2); 20 cetuximab-Fab′ and 5 F5 scFv per liposome
[20] = biological target: epidermal growth factor receptor (EGFR) (human) (UniProt P00533); assay: dose-uptake, fluorometry of lysed cells, 37 °C, 4 hr; MDA-468 cells (EGFR overexpressed, negligible HER2); 10 cetuximab-Fab′ and 10 F5 scFv per liposome
[21] = biological target: epidermal growth factor receptor (EGFR) (human) (UniProt P00533); assay: dose-uptake, fluorometry of lysed cells, 37 °C, 4 hr; MDA-468 cells (EGFR overexpressed, negligible HER2); 20 cetuximab-Fab′ and 10 F5 scFv per liposome
[22] = biological target: epidermal growth factor receptor (EGFR) (human) (UniProt P00533); assay: dose-uptake, fluorometry of lysed cells, 37 °C, 4 hr; MDA-468 cells (EGFR overexpressed, negligible HER2); 20 cetuximab-Fab′ and 15 F5 scFv per liposome

liposomes per cell (liposomes/cell) [1]: < 20000 | observed cellular uptake (liposomes per cell) (liposomes/cell) [2]: 230000 | observed cellular uptake (liposomes per cell) (liposomes/cell) [3]: 230000 | LS/Cell Max (liposomes per cell) (liposomes/cell) [4]: 8100 | LS/Cell Max (liposomes per cell) (liposomes/cell) [5]: 40000 | LS/Cell Max (liposomes per cell) (liposomes/cell) [6]: 4900 | LS/Cell Max (liposomes per cell) (liposomes/cell) [7]: 4100 | LS/Cell Max (liposomes per cell) (liposomes/cell) [8]: 72000 | LS/Cell Max (liposomes per cell) (liposomes/cell) [9]: 68000 | F5 scFv per cell at the plateau [10]: 3e+06 ligands/cell | liposomes per cell at the plateau (liposomes/cell) [10]: 200000 and 300000 | fold binding over non-targeted liposomes (NT) [11]: 300 fold | fold binding over non-targeted liposomes (NT) [12]: 200 fold | LS/Cell Max (liposomes per cell) (liposomes/cell) [13]: 5300 | LS/Cell Max (liposomes per cell) (liposomes/cell) [14]: 1100 | LS/Cell Max (liposomes per cell) (liposomes/cell) [15]: 8000
Substance: anti-HER2 F5 scFv-conjugated immunoliposomes

F5 scFv per cell [16]: 2e+06 ligands/cell and 3e+06 ligands/cell | fold binding over non-targeted liposomes (NT) [17]: 500 fold | Anti-EGFR Lg/Cell Max (ligands per cell) [18]: 270000 ligands/cell | LS/Cell Max (liposomes per cell) (liposomes/cell) [18]: 27000 | Anti-EGFR Lg/Cell Max (ligands per cell) [19]: 1.2e+06 ligands/cell | LS/Cell Max (liposomes per cell) (liposomes/cell) [19]: 61000 | Anti-EGFR Lg/Cell Max (ligands per cell) [20]: 220000 ligands/cell | LS/Cell Max (liposomes per cell) (liposomes/cell) [20]: 22000 | Anti-EGFR Lg/Cell Max (ligands per cell) [21]: 1.1e+06 ligands/cell | LS/Cell Max (liposomes per cell) (liposomes/cell) [21]: 53000 | Anti-EGFR Lg/Cell Max (ligands per cell) [22]: 1.2e+06 ligands/cell | LS/Cell Max (liposomes per cell) (liposomes/cell) [22]: 59000
Substance: anti-HER2 and anti-EGFR dual-targeted immunoliposomes
